# Source: PMC8552709, “Mechanistic Insights into the Capsule-Targeting Depolymerase from a Klebsiella pneumoniae Bacteriophage” (Microbiology Spectrum, 2021)
# Target: the molecule itself
# Experiment: SEC; HiLoad 16/600 Superdex 200-pg column, 25 mM Tris (pH 8.0), 200 mM NaCl; peak checked by reducing SDS-PAGE
protein,measurement,value
"DpK2 (gp02), capsule depolymerase / tailspike protein of Klebsiella phage RAD2 (enzyme, UniProt P0DTN8 1-907, looked up, DpK2, product of gp02 of Klebsiella phage RAD2 (genome GenBank MW655991); 98 kDa; the open reading frame was cloned between NcoI and XhoI of pPROEX htb; residues 191 to 906 are modelled in the cryo-EM structure; Homotrimer; The forward primer ([residues removed]) reads M-G-A-L-Y-R-E-G-K, so the NcoI site may add a glycine after the first methionine; no removal of the His tag is described; also …) MALYREGKAAMAADGTVTGTGTKWQSSLSLIRPGATIMFLSSPIQMAVVNKVVSDTEIKAITTSGAVVASTDYAILLSDSLTVDGLAQDVAETLRHYQSQETVIADAVEFFKSFDFDSLQNLANQIKADSESAESSAAAAAASESKAKTSEDNAKSSENAAKNSEVAAETTRDQIQQIIDNAGDQSTLVVLAQPDGFDSIGRVSSFAALRNLKPKKSGQHVLLTSYYDGWAAENKMPTGGGEFISSIGTATDDGGYIAAGPGYYWTRVVNNNSFTAEDFGCKTTATPPPNFNVLPAELFDNTAMMQAAFNLAISKSFKLNLSTGTYYFESSDTLRITGPIHIEGRPGTVFYHNPSNKANPKTDAFMNISGCSAGRISSINCFSNSYLGKGINFDRSVGDNRKLVLEHVYVDTFRWGFYVGEPECINQIEFHSCRAQSNYFQGIFIESFKEGQEYGHSAPVHFFNTICNGNGPTSFALGATYKTTKNEYIKVMDSVNDVGCQAYFQGLSNVQYIGGQLSGHGSPRNTSLATITQCNSFIIYGTDLEDINGFTTDGTAITADNIDAIESNYLKDISGAAIVVSSCPGFKIDSPHIFKIKTLSTIKLMNNTYNYEIGGFTPDEALKYNVWDANGLATNRISGVIHPRLVNSRLGINSVAFDNMSNKLDVSSLIHNETSQIVGLTPSTGSNVPHTRKMWSNGAMYSSTDLNNGFRLNYLSNHNEPLTPMHLYNEFSVSEFGGSVTESNALDEIKYIFIQTTYANSGDGRFIIQALDASGSVLSSNWYSPQSFNSTFPISGFVRFDVPTGAKKIRYGFVNSANYTGSLRSHFMSGFAYNKRFFLKIYAVYNDLGRYGQFEPPYSVAIDRFRVGDNTTQMPSIPASSATDVAGVNEVINSLLASLKANGFMSS",stoichiometry N,3
